Here are results for five proteins from article PMC7460833, “Exploring the Role of Phenylalanine Residues in Modulating the Flexibility and Topography of the Active Site in the Peroxygenase Variant PaDa-I” (International Journal of Molecular Sciences, 2020).

Substrate in the series: O=[N+]([O-])c1ccc2c(c1)OCO2
As to the kind of experiment: purified protein. The series is classed as biochemical, Cyclocybe aegerita. The following applies: H2O2 1 mM, potassium phosphate 50 mM pH 7.0, 20% v/v acetonitrile.

B1: PaDa-I (AaeUPO variant) (Cyclocybe aegerita; F119A/F354L/I291V/L110F/V100A/V118I) (protein)
chain: EPGLPPGPLENSSAKLVNDEAHPWKPLRPGDIRGPCPGLNTLASHGYLPRNGVATPAQIINAVQEGFNFDNQAAIAATYAAHLVDGNLITDLLSIGRKTRLTGPDPPPPASVGGLNEHGTFEGDASMTRGDAFFGNNHDFNETLFEQLVDYSNRFGGGKYNLTVAGELRFKRIQDSIATNPNFSFVDFRFFTAYGETTFPANLFVDGRRDDGQLDMDAARSFFQFSRMPDDFFRAPSPRSGTGVEVVVQAHPMQPGRNVGKINSYTVDPTSSDFSTPCLMYEKFVNITVKSLYPNPTVQLRKALNTNLDFLFQGVAAGCTQVFPYGRD
notes: laboratory-evolved secreted variant; plasmid pJRoC30-PaDa-I in Saccharomyces cerevisiae BJ5465, purified; only F311L given; recalled mature changes V57A/L67F/V75I/I248V/F311L (plus signal peptide F12Y/A14V/R15G/A21D); heme-thiolate, N-glycosylated
For the protein B1, the Km (usually the concentration of substrate that gives half-maximal velocity) was determined as 1386 ± 176 µM, the kcat (commonly the maximal rate divided by the concentration of active sites) came to 356 ± 30 s⁻¹ and the catalytic efficiency (kcat/Km) (usually the turnover number divided by the Michaelis constant) is 257000 M⁻¹ s⁻¹.

B2: PaDa-I (AaeUPO variant) (Cyclocybe aegerita; F234A/F354L/I291V/L110F/V100A/V118I) (protein)
chain: EPGLPPGPLENSSAKLVNDEAHPWKPLRPGDIRGPCPGLNTLASHGYLPRNGVATPAQIINAVQEGFNFDNQAAIFATYAAHLVDGNLITDLLSIGRKTRLTGPDPPPPASVGGLNEHGTFEGDASMTRGDAFFGNNHDFNETLFEQLVDYSNRFGGGKYNLTVAGELRFKRIQDSIATNPNFSFVDFRFATAYGETTFPANLFVDGRRDDGQLDMDAARSFFQFSRMPDDFFRAPSPRSGTGVEVVVQAHPMQPGRNVGKINSYTVDPTSSDFSTPCLMYEKFVNITVKSLYPNPTVQLRKALNTNLDFLFQGVAAGCTQVFPYGRD
notes: as for B1
Take B2: the Km stood at 525 ± 73 µM, the kcat was 279 ± 18 s⁻¹ and the kcat/Km was found to be 531000 M⁻¹ s⁻¹.

B3: PaDa-I (AaeUPO variant) (Cyclocybe aegerita; F119L/F234A/F354L/I291V/L110F/V100A/V118I) (protein)
chain: EPGLPPGPLENSSAKLVNDEAHPWKPLRPGDIRGPCPGLNTLASHGYLPRNGVATPAQIINAVQEGFNFDNQAAILATYAAHLVDGNLITDLLSIGRKTRLTGPDPPPPASVGGLNEHGTFEGDASMTRGDAFFGNNHDFNETLFEQLVDYSNRFGGGKYNLTVAGELRFKRIQDSIATNPNFSFVDFRFATAYGETTFPANLFVDGRRDDGQLDMDAARSFFQFSRMPDDFFRAPSPRSGTGVEVVVQAHPMQPGRNVGKINSYTVDPTSSDFSTPCLMYEKFVNITVKSLYPNPTVQLRKALNTNLDFLFQGVAAGCTQVFPYGRD
notes: as for B1
With B3, the Km was determined as 1552 ± 155 µM, the kcat was 332 ± 33 s⁻¹ and the specificity constant (kcat/Km) was found to be 214000 M⁻¹ s⁻¹.

B4: PaDa-I (AaeUPO variant) (Cyclocybe aegerita; F119A/F234A/F354L/I291V/L110F/V100A/V118I) (protein)
chain: EPGLPPGPLENSSAKLVNDEAHPWKPLRPGDIRGPCPGLNTLASHGYLPRNGVATPAQIINAVQEGFNFDNQAAIAATYAAHLVDGNLITDLLSIGRKTRLTGPDPPPPASVGGLNEHGTFEGDASMTRGDAFFGNNHDFNETLFEQLVDYSNRFGGGKYNLTVAGELRFKRIQDSIATNPNFSFVDFRFATAYGETTFPANLFVDGRRDDGQLDMDAARSFFQFSRMPDDFFRAPSPRSGTGVEVVVQAHPMQPGRNVGKINSYTVDPTSSDFSTPCLMYEKFVNITVKSLYPNPTVQLRKALNTNLDFLFQGVAAGCTQVFPYGRD
notes: as for B1
On to B4, for which the Km is 1389 ± 119 µM, the kcat is 258 ± 15 s⁻¹ and the kcat/Km was determined as 186000 M⁻¹ s⁻¹.

B5: PaDa-I (AaeUPO variant) (Cyclocybe aegerita; F119L/F354L/I291V/L110F/V100A/V118I) (protein)
chain: EPGLPPGPLENSSAKLVNDEAHPWKPLRPGDIRGPCPGLNTLASHGYLPRNGVATPAQIINAVQEGFNFDNQAAILATYAAHLVDGNLITDLLSIGRKTRLTGPDPPPPASVGGLNEHGTFEGDASMTRGDAFFGNNHDFNETLFEQLVDYSNRFGGGKYNLTVAGELRFKRIQDSIATNPNFSFVDFRFFTAYGETTFPANLFVDGRRDDGQLDMDAARSFFQFSRMPDDFFRAPSPRSGTGVEVVVQAHPMQPGRNVGKINSYTVDPTSSDFSTPCLMYEKFVNITVKSLYPNPTVQLRKALNTNLDFLFQGVAAGCTQVFPYGRD
notes: as for B1
As for B5, the Km came out at 890 ± 81 µM, the kcat was found to be 454 ± 22 s⁻¹ and the specificity constant (kcat/Km) came out at 510000 M⁻¹ s⁻¹.
